Assay results from the NTF2 design screens of Basanta et al. (2020).

Assay: protease stability score; higher = more stable; yeast display proteolysis, trypsin and chymotrypsin;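 also: relative to predicted unfolded state with 0 unfolded-like and 1 meaning tenfold more protease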

Sequence	protease stability score
DEDREVAENMVRLFIHFLLTGNEERLNQYFDPHTLLIVGDKRYHGMEESNKWIVELWTERVEIRHIEVDYYGDKVHATISGHHVGIVDGKRIETQVDFHFRIDKIDGRWVAREVEIRHD	2.06
DEHEQFLRDIAIILIHAHLTGDWKRLEEMLDPNVRFEIDINGRSIEQHGRELYLRWVRKIHNEIWFRIEIEDISVINGRASVKVRLDLNVGDKVLHTRIHIEVVVIDGVLRSESIRVR	2.69
SEEERLARVFVELLLEISKTGDERMWKWLADPHYRLIIDGVRFHGRETLEREFKRFDYIHDVRLNDMIINGEHLILDVRVHGQQGDKEINIRTFLVVLKVDGVWVLKSVHIH	1.49
SEEEREAQTFYEEWRENFRTGDFDRLHELMDPNARIHQGDKLIIGRQLLEHWRHRFKNIRVDFDLKHIEVQGEKIILRLHFEISIDGRTEHYDMIMIVHKVDGVWIVKSFTIK	1.43
DEWEETAKKATKDQLRDVATGDEDSHESLLDPNVKLQVGDKTFHGREEIHRWLREFLNKIPNIRLEVKEIHTQGDFVILDMKMDIDGREIHVRIVMIKVDGRWFVNKLIII	0.615
DEHEEKLIKHMESLLHWEETGDEESMLKNADPNARHDVNGVEFHGMHRFVHHVIKRGWRFRMEVEHVDAFDGRYRVEGTLILNFDGVEHRHHVILRFIVIDGRLHERKVEVR	1.46
DDEEEILKEFVRIFREVWLTGDFHALLRLADPNVRQELHVNGREIHNHGREAMSDWHHFMRKFFKGMTIIEHTSYLIDGRIHIEGTWSFDGVDFRTHIHQVVIDGRIEHVQLTIH	0.177
DEKTEISEELLKIFVDLLQTGDEDIFQDMMDPRAQVHVNGKRIHGREHIIHWFREAHRHLGVKHTHIHRVEIQGEKVYIDGRLHYNGRDFNTHLIFDVINGRVKSMELRQH	1.09
DESKEAAELFIKQVERSTKTGDERLFEEFIDPHMRLEIGEFDYHGREFLHITLRDLGMEIRTFIVKDIKVQGDKARIRVEEHIQVNGVEQRRQVKYVIDKFDGRWEIHSVHFD	0.392
DEEKELNENLAKIILHMFHTGDEKRWSKMADPHMRANINGVTIHGRELVIKEFLHWRHRLGVKHEEIHHIDIQGDKVRTDSHVDIDGQRVNIILRVVVVNGRLHSEEVEIR	0.787
SEEEEDMRKAHEFVDKLIHTGDEDETRRYADPNVLVTINGRRWVGRDDYVEVLREILHRADHVHLHEKSIRIVDGVVQINSNLFIKQGDKEIHLDIRFHIRKVNGRWDMKRMEIR	1.64
SDLDQEMKTWLEETIRLLNTGNEEEWTKLADPNARVEIGDKHYHGWESLEELRKIFGVEKIDYRFTRIEVQGEKADSDVRIEVNGRELHVRLIIVVVNGRHKSMRVIFG	1.99
DEHEEMVRIFIKLFIHNSHTGNEEELTRMADPHTKVDVNGKEYIGREEWRRFFMELGVDHVEVRRVHVQGEKAEVDLELNIDGRVIRFHIYTLKINGKWIIKSLEVR	1.78
HEDEELSRKAVELMLELIMTGDEDTIRSLADPDTRIEINGRHHHGRHLMVEFMREWFRRYPNVQLDVHSLDIDLFNGRVLIQINLEIRIGDKHHRVRINIHADKVDGRWRLKEVRIEIK	1.5
DDEEKRIQEASREMLEIMRTGDEERLKQMADPNARWHTKIDGQEVHRHGREEFIKIFRWVMERLGIDHVELHSIHIYNGQNDIDSRFHFDGRNHRILFIWVVYNGRLHHVRIEIQ	1.58
DEEEELNREALKEFHDDMKTGDERHILENLDPNTRIQFNGRDLHGRENAERFIRELIQKYGATVFNMKRVEVQGDWLHIDGELVIGDKKHRIHIIAVKINGRWTDTELRIK	1.48
SEERHELERTLKRYQDALITGNEEQMEKLIDPNVRTRIDGVDLIGMELVIEELVEWLDRYPNVRIHSHIHEVRFQGDKADIDSRLHLIFDGQEYRLHTRIHIWKFNGRWVLTHSEID	0.884
SEEEEQAKEAVRHFIHKWQTGDEDRLKELLDPHTKIDIGDKHIHGREEATKLIRNELHRIKNIRVELRDIEVRVYDGVIELHIRGLEKYNGQEVHVTIILIFRKINGQWIIQSEHFHID	1.31
SEDAEYIKEFAELFFRWWITGDEEHLRSLADPHTRSDVNGRDIHGMELWSKMLLDHLTKIKNVRYTLREVRFFENHTELDMKVDINGKEMKFSIRVSLINGRLHSITVRLHSE	1.35
DEITTLFRKILELMEHALKTGDWEIHKRLMDPHTKSNVNGVVAIGREELDKLWKELDKQVDHVEDSHFTEFRIQGDYIRIHVQIRIRVGDKFHDLKVDYHLVIINGVMKSSSVTFH	0.963
SEEEEMNEELIKIVLHSWKTGDEKHLEENFDPNVKLIVGDKRFIGREHLVKLIDHLIKRYPGLTIHLHDVKIQGNYVHLDTRAHFDGQTYNTRSHARKVDGRWYLTHSHIE	0.125
DEKRKLAEEIMRLLLHAYKTGDEELIHKLADPDTRVIINGVDLHGWEEMNRHLEEIIRQFDHWDLKIRDFRIQGDKYHIHGHLIHIQGDKHIRHDVNFHIVFVNGRQTSNHIDIH	1.41
SEEEEILDKLVKHFIHAFRTGDEDRLNELLDPDAKLVIEYGDKRLEHHGRENVLRAWVELIERIKGVRLEWKEIRPQGDFVESRTQLIVNGREVETEVEIIMFNGRFREFTVRIR	2.11
DELDDITEHLLHRFVDSLITGDEDLLEKYADPNAKLIIEIGDKRIERHGMHRFYELLLRFKNVKLDVKEIHVQGDKATIESTLQYGDKKHDTRLEVEFYDGRLKIIRWEIR	2.25
DPREIALKLLLQIMQELEETGDFREEEKYVDPHMRIKIDGVIYHGRSAIEHEYRRFDHIHEIELKRFHVQGDKITLEGYIRGNFDGKEHNTRSILLAKKVNGRWVLTEVTWL	0.801

Sequence	protease stability score
HDRNEIIREALRILIHSILTGDEDHLREFADPHVKSDINGQEFHGREVFFMWLLHMRIQTVTIKHVDVQGEKARVYSSIHGDVDGQRTEYHTEIFSQKVNGRWIIRTIRVE	1.16
DDLHEDTKRYLKEWIDLMYTGDEEKIFENMDPNTRIIDENHELHGREEVKDWARRMARELRHREFELTHLEVQGNFIHVRGLLIGDQGDKVIIRDVEIISIKINGRWRIESVRFE	2.34
TEEEEKSWRLAEWFFRIIETGNEHEQKRLADPHVQIHIQIDGRHIHLHGWEELMKELKRLGIKYHKIERLRVIGEKIDEEGRLEINGREHDVRIHILIINGRMNSIHIHIE	1.66
SEEMHWAKEFYKALLKSWRTGDEELIKDLMDPHVRLHYGDKELHGREEFVRFIQEHVSRVDHIDIHIDDMKLQGNKVHVDGIIIIHVNGRDINIRSEYIIYKVDGRWHLETVHIH	1.59
DEEDKNTHEFARRIIESWVTGDWKDLHELIDPHARLILDVGNKKEIYHGREEVKRRLLREIEKFKNVRFEIRDLHVVGDKVDAEVTLHIDGKDIEIHIHLLIVNGKVKEIRLHYH	2.27
DLEHEITRRVLWELTESSKTGDFDRRLELLDPHARVNIDGKDFHGREEVEYLLREMEKFWGHDRVYLDVKEIEIQGDKIDVDSELTINGKKRKARLIVVKVNGRWVIHSIEVE	1.04
SEDHELRKHLADRTYKWLATGNFEELMKLMDPNTRFTIGEFNDHGRKAIEWLWRELGVDHFHFREIRVQGDKIHMDTEFEFNGVKVRTHFRVIVIDGRVTSVIILTE	1.34
DEEKEEYRRAIEDWIKFFITGDFDLLKTLADPNARSEIGNYEFHGMEHISRRIVDIIERFKNMRYSVHSIDFQGDYVILHSYIIYGDKHLHLIVITYKFNGRWRFHSVRVE	1.26
SEVQESIKEVIEIWNKALETGDWHRLTELADPDTRVEIGDKDIIGREAVTSELEKVTHKFKNLRIDEIHIERLEIQGEKVELHGIIRGTVNGQHRFYHTEFIIVKINGRWRLRVIYFL	1.79
SEEEETIRRVAEVLVHSILTGDEHFEENYLDPNARIDVNGKHFIGRERYLEAIRDLNEHLGWELKDVKLREVNVQGDKMHLKMEIKRHVNGKDLFIDMHVNVWKVNGKWLIRSLRYS	1.44
DDLEHSSETFEKLWLESVFTGDWRSLLEMLDPHARLVINGRDFIGRELVKETLKEFLDRVPNMTLKLEDREVHIQGDKARIELHTRLEVGDKTVDTRIELIVNKIDGRWLLESQIIRIH	1.08
SEHEEHVRSAIERLSHAWRTGNEELFKELVDPHTRFIYGNKNMHGWEISEFFRRRVKGMTLHEVDIHHVEVINGRVHVNSILRGEINGKDTFEDHELHARKVDGRWVVTEMTIR	0.732
SEEEDMARHFNELFIKMLKTGNEEEIKKMADPEVRIIIDVGDYIERDHGWEVLKREREWLGIKHIDIERAEIRVFDGRVHLKLDGRSNVNGKEIEVEIINDTEKINGRWRMKNLRYIFK	1.08
DEDEEVSRRALEKWIKNFLTGNEDSVLELADPHMRIVQGDKEYHGRHEMRDMMTDWLREIRIKTVEERHFRVIDGRVDHHVTLHGIVNGKETVRRMIVISEKVDGKWILHSLEIR	0.907
DERERIAEEILRRIAKLMETGDENEMEHLMDPNVRLVFNGVRLHGMEDWEREMRRFDHIKIHTNEIQHIRLQGEKVDNDVRVDLLYHQGDKSWKIDTRTHYHFQKVNGKWIVREIIIE	1.39
SEIEERVYRVVETFWMALRTGDEETLDDLLDPNVKLDIDGKEFHGREKYKEFLELFKGVTVESVEFRDSKISGEKAIIHVHVTLRQGDKEEHKSTELVLYKINGRWIIEHVRLK	2.21
SEEDHDRELWISLLKKEAETGDERQVRENLDPNVQLDVGDKTFHGREIVLDHIHEEWKRLGLDRIKLFVDSIRIQGDKVRLDGSLDVNGKEIRVNIFLRKINGRWHIEFIHID	0.666
TDEEKSVEELLEKIEHANDTGDFELHKRLADPHVRVLVNGVELHGRHVLMEWLRELFERFKNVTFRLNLREVEFQGEWVFLRIELTVHVNGRTHHHDSIYIIHKVDGRWHITEVRFH	1.34
SEEHRDSKRAIDILVHSVRTGDEKSFESFLDPNVRIDVDGVELHGMEFATTIFREWRIHHVHIDRYRSQGDWIEVDTTMDVRYGDKTDTRKTELIILKVNGVWLLHSVIIR	1.19
DEEEETMERALRETLHFINTGDEDSMEELMDPNWRIHIDGKDLHGWKFFQHLLRRADHIHIHIELKDVRRVGDKLELDGRLHVIYFIDGQEIHKVVDTHIYMIKINGRWHHKFIEIK	2.15
DHMERLLKHVARLFIHALHTGDESILTDLLDPNVRVHIHIGDKEIRLHGREHVRHYLEHELTHWRTEFHLTHFDIVGNKFENHTNVIIRIDGVEIRLDRRHEVVLYDGKIEEVIVRVE	2.37
DEQNELLDRLSTILLRLLWTGDEDQWLRLADPDMKLDVGNFKTVGRERVIEIFRAWERHIRVERMHLEDTKLQGDFYFSDYRVDGQINGQRTDTRVIYIFVVVNGRMKSIKVIIE	1.34
DEEEEDVRRAVEIWERSLRTGDEHEVKRFVDPHTRLEVDGREFHGREQFIEVMRHWRFRHFQIRDFRVIDGRADVDAISEVDYNGRRFEVKTIIIVIKINGRWVLHSLNIR	1.63
SEDEEIARRYLEFFLHILRTGDFEEMLRLLDPHVRTHVDGREKHGRENVTTFFMRWWEDYGFDHVTLEDFRVHIYGEKIHIKIDGYFHFNGRSVDVKIHVIAKKINGRWLLHEMHFEVR	1.26
DEDSEMVWRMLEDWLHNFLTGNEELLEHLMDPNARFEQGDKEIHGREKIAKFLRKELEDLGVKIEFRDTSIKSINGRAHNDGTNIIRVNGREIRRDTRIDLTVIDGRIKEIRIEIN	1.28
